Experimental data taken from US20190185537A1 (AstraZeneca / MedImmune, published 2019).
Numbered stars: 1 amine (or outer) side, 2 acyl side, 3 side chain; on linkers, the order of the positions; unused ones are H or OH. Side chains are listed from the residue outwards. Ends that are not written are not given here. * marks the point of attachment. γGlu = O=C(O)[C@H](CCC(=O)[*:2])N[*:1]; Palmitoyl = CCCCCCCCCCCCCCCC(=O)*; βAla = NCCC(=O)O

How the values were obtained:
Test in all cases: cell-based or functional assay
[1] = biological target: human GLP-1 receptor (human, UniProt P43220 24-463)
[2] = biological target: T1, human glucose-dependent insulinotropic peptide (gastric inhibitory polypeptide) receptor (human) (UniProt P48546)
T1 sequence (looked up): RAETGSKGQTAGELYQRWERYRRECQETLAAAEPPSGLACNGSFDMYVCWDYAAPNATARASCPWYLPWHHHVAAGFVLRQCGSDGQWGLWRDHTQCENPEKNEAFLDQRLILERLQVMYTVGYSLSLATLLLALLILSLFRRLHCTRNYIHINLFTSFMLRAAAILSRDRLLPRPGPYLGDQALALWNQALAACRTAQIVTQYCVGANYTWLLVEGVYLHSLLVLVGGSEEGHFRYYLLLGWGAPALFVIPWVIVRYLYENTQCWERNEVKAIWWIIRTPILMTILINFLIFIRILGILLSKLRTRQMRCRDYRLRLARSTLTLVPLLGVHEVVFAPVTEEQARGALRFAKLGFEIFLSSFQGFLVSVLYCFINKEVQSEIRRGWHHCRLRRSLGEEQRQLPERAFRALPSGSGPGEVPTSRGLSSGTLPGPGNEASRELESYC

[3] = biological target: human glucagon receptor (human, UniProt P47871 26-477)
Chain of human glucagon receptor (P47871 26-477): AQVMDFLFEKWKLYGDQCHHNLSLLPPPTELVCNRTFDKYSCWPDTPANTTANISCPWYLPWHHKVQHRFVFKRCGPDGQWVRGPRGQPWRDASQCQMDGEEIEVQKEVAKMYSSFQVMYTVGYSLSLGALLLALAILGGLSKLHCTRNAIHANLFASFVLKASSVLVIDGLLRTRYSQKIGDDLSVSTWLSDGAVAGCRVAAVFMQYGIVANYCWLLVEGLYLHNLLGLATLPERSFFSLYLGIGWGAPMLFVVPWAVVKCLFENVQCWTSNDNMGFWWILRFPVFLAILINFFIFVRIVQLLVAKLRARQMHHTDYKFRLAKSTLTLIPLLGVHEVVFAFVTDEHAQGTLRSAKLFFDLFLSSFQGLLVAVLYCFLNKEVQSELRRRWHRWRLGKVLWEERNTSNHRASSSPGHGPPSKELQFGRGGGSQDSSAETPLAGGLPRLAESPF

Chain of human GLP-1 receptor (P43220 24-463): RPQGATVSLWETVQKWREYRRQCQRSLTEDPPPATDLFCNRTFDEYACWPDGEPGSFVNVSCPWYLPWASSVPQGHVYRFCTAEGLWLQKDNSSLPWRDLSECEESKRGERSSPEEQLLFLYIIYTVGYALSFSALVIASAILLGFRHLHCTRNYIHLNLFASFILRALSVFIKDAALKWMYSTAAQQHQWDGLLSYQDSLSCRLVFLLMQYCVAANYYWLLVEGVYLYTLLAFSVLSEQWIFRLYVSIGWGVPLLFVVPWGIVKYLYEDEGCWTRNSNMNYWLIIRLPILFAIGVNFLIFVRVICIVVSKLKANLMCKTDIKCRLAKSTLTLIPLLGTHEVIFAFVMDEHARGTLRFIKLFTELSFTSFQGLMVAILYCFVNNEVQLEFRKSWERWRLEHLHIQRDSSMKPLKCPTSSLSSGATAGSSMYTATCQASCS

| Binder | cAMP EC50 (assay 1) [1] [nM] | cAMP EC50 (assay 1) [2] [nM] | cAMP EC50 (assay 1) [3] [nM] |
| --- | --- | --- | --- |
| HSQGTFTSDYSKYLDSRRAQDFVQWLEAGGK([γGlu-Palmitoyl])-NH2 (N-terminus assumed; SMILES CCCCCCCCCCCCCCCC(=O)N[C@@H](CCC(=O)NCCCC[C@H](NC(=O)CNC(=O)CNC(=O)[C@H](C)NC(=O)[C@H](CCC(=O)O)NC(=O)[C@H](CC(C)C)NC(=O)[C@H](Cc1c[nH]c2ccccc12)NC(=O)[C@H](CCC(N)=O)NC(=O)[C@@H](NC(=O)[C@H](Cc1ccccc1)NC(=O)[C@H](CC(=O)O)NC(=O)[C@H](CCC(N)=O)NC(=O)[C@H](C)NC(=O)[C@H](CCCNC(=N)N)NC(=O)[C@H](CCCNC(=N)N)NC(=O)[C@H](CO)NC(=O)[C@H](CC(=O)O)NC(=O)[C@H](CC(C)C)NC(=O)[C@H](Cc1ccc(O)cc1)NC(=O)[C@H](CCCCN)NC(=O)[C@H](CO)NC(=O)[C@H](Cc1ccc(O)cc1)NC(=O)[C@H](CC(=O)O)NC(=O)[C@H](CO)NC(=O)[C@@H](NC(=O)[C@H](Cc1ccccc1)NC(=O)[C@@H](NC(=O)CNC(=O)[C@H](CCC(N)=O)NC(=O)[C@H](CO)NC(=O)[C@@H](N)Cc1c[nH]cn1)[C@@H](C)O)[C@@H](C)O)C(C)C)C(N)=O)C(=O)O) [g747] | 3.16 | 1040 | 0.0942 |
| HSEGTFTSDYSEYLDSK([βAla-Palmitoyl])RARDFVAWLEAGG-NH2 (N-terminus assumed; SMILES CCCCCCCCCCCCCCCC(=O)NCCC(=O)NCCCC[C@H](NC(=O)[C@H](CO)NC(=O)[C@H](CC(=O)O)NC(=O)[C@H](CC(C)C)NC(=O)[C@H](Cc1ccc(O)cc1)NC(=O)[C@H](CCC(=O)O)NC(=O)[C@H](CO)NC(=O)[C@H](Cc1ccc(O)cc1)NC(=O)[C@H](CC(=O)O)NC(=O)[C@H](CO)NC(=O)[C@@H](NC(=O)[C@H](Cc1ccccc1)NC(=O)[C@@H](NC(=O)CNC(=O)[C@H](CCC(=O)O)NC(=O)[C@H](CO)NC(=O)[C@@H](N)Cc1c[nH]cn1)[C@@H](C)O)[C@@H](C)O)C(=O)N[C@@H](CCCNC(=N)N)C(=O)N[C@@H](C)C(=O)N[C@@H](CCCNC(=N)N)C(=O)N[C@@H](CC(=O)O)C(=O)N[C@@H](Cc1ccccc1)C(=O)N[C@H](C(=O)N[C@@H](C)C(=O)N[C@@H](Cc1c[nH]c2ccccc12)C(=O)N[C@@H](CC(C)C)C(=O)N[C@@H](CCC(=O)O)C(=O)N[C@@H](C)C(=O)NCC(=O)NCC(N)=O)C(C)C) [g734] | 0.0695 | 1170 | 82.8 |
| HSQGTFTSDYSEYLDSK([γGlu-Palmitoyl])RARDFVAWLEAGG-NH2 (N-terminus assumed; SMILES CCCCCCCCCCCCCCCC(=O)N[C@@H](CCC(=O)NCCCC[C@H](NC(=O)[C@H](CO)NC(=O)[C@H](CC(=O)O)NC(=O)[C@H](CC(C)C)NC(=O)[C@H](Cc1ccc(O)cc1)NC(=O)[C@H](CCC(=O)O)NC(=O)[C@H](CO)NC(=O)[C@H](Cc1ccc(O)cc1)NC(=O)[C@H](CC(=O)O)NC(=O)[C@H](CO)NC(=O)[C@@H](NC(=O)[C@H](Cc1ccccc1)NC(=O)[C@@H](NC(=O)CNC(=O)[C@H](CCC(N)=O)NC(=O)[C@H](CO)NC(=O)[C@@H](N)Cc1c[nH]cn1)[C@@H](C)O)[C@@H](C)O)C(=O)N[C@@H](CCCNC(=N)N)C(=O)N[C@@H](C)C(=O)N[C@@H](CCCNC(=N)N)C(=O)N[C@@H](CC(=O)O)C(=O)N[C@@H](Cc1ccccc1)C(=O)N[C@H](C(=O)N[C@@H](C)C(=O)N[C@@H](Cc1c[nH]c2ccccc12)C(=O)N[C@@H](CC(C)C)C(=O)N[C@@H](CCC(=O)O)C(=O)N[C@@H](C)C(=O)NCC(=O)NCC(N)=O)C(C)C)C(=O)O) [g837] | 0.467 | 114 | 0.213 |
| HSQGTFTSDYSKYLDSRK([γGlu-Palmitoyl])ARDFVAWLEAGG-NH2 (N-terminus assumed; SMILES CCCCCCCCCCCCCCCC(=O)N[C@@H](CCC(=O)NCCCC[C@H](NC(=O)[C@H](CCCNC(=N)N)NC(=O)[C@H](CO)NC(=O)[C@H](CC(=O)O)NC(=O)[C@H](CC(C)C)NC(=O)[C@H](Cc1ccc(O)cc1)NC(=O)[C@H](CCCCN)NC(=O)[C@H](CO)NC(=O)[C@H](Cc1ccc(O)cc1)NC(=O)[C@H](CC(=O)O)NC(=O)[C@H](CO)NC(=O)[C@@H](NC(=O)[C@H](Cc1ccccc1)NC(=O)[C@@H](NC(=O)CNC(=O)[C@H](CCC(N)=O)NC(=O)[C@H](CO)NC(=O)[C@@H](N)Cc1c[nH]cn1)[C@@H](C)O)[C@@H](C)O)C(=O)N[C@@H](C)C(=O)N[C@@H](CCCNC(=N)N)C(=O)N[C@@H](CC(=O)O)C(=O)N[C@@H](Cc1ccccc1)C(=O)N[C@H](C(=O)N[C@@H](C)C(=O)N[C@@H](Cc1c[nH]c2ccccc12)C(=O)N[C@@H](CC(C)C)C(=O)N[C@@H](CCC(=O)O)C(=O)N[C@@H](C)C(=O)NCC(=O)NCC(N)=O)C(C)C)C(=O)O) [g782] | 0.0254 | 1430 | 0.156 |
| HGQGTFTSDYSKYLDSK([γGlu-Palmitoyl])RAQDFVQWLEAGG-NH2 (N-terminus assumed; SMILES CCCCCCCCCCCCCCCC(=O)N[C@@H](CCC(=O)NCCCC[C@H](NC(=O)[C@H](CO)NC(=O)[C@H](CC(=O)O)NC(=O)[C@H](CC(C)C)NC(=O)[C@H](Cc1ccc(O)cc1)NC(=O)[C@H](CCCCN)NC(=O)[C@H](CO)NC(=O)[C@H](Cc1ccc(O)cc1)NC(=O)[C@H](CC(=O)O)NC(=O)[C@H](CO)NC(=O)[C@@H](NC(=O)[C@H](Cc1ccccc1)NC(=O)[C@@H](NC(=O)CNC(=O)[C@H](CCC(N)=O)NC(=O)CNC(=O)[C@@H](N)Cc1c[nH]cn1)[C@@H](C)O)[C@@H](C)O)C(=O)N[C@@H](CCCNC(=N)N)C(=O)N[C@@H](C)C(=O)N[C@@H](CCC(N)=O)C(=O)N[C@@H](CC(=O)O)C(=O)N[C@@H](Cc1ccccc1)C(=O)N[C@H](C(=O)N[C@@H](CCC(N)=O)C(=O)N[C@@H](Cc1c[nH]c2ccccc12)C(=O)N[C@@H](CC(C)C)C(=O)N[C@@H](CCC(=O)O)C(=O)N[C@@H](C)C(=O)NCC(=O)NCC(N)=O)C(C)C)C(=O)O) [g512] | 0.098 | 407 | 0.0606 |
| HSEGTFTSDYSKYLDSK([γGlu-Palmitoyl])RAQDFVQWLEAGG-NH2 (N-terminus assumed; SMILES CCCCCCCCCCCCCCCC(=O)N[C@@H](CCC(=O)NCCCC[C@H](NC(=O)[C@H](CO)NC(=O)[C@H](CC(=O)O)NC(=O)[C@H](CC(C)C)NC(=O)[C@H](Cc1ccc(O)cc1)NC(=O)[C@H](CCCCN)NC(=O)[C@H](CO)NC(=O)[C@H](Cc1ccc(O)cc1)NC(=O)[C@H](CC(=O)O)NC(=O)[C@H](CO)NC(=O)[C@@H](NC(=O)[C@H](Cc1ccccc1)NC(=O)[C@@H](NC(=O)CNC(=O)[C@H](CCC(=O)O)NC(=O)[C@H](CO)NC(=O)[C@@H](N)Cc1c[nH]cn1)[C@@H](C)O)[C@@H](C)O)C(=O)N[C@@H](CCCNC(=N)N)C(=O)N[C@@H](C)C(=O)N[C@@H](CCC(N)=O)C(=O)N[C@@H](CC(=O)O)C(=O)N[C@@H](Cc1ccccc1)C(=O)N[C@H](C(=O)N[C@@H](CCC(N)=O)C(=O)N[C@@H](Cc1c[nH]c2ccccc12)C(=O)N[C@@H](CC(C)C)C(=O)N[C@@H](CCC(=O)O)C(=O)N[C@@H](C)C(=O)NCC(=O)NCC(N)=O)C(C)C)C(=O)O) [g513] | 0.175 | 298 | 0.723 |
